The values below come from US20110311522A1.

Experiment in all cases: cell-based or functional assay
The target of assay [1] is hemagglutinin (HA) of H5N1 virus strain QH1.1 (H5N1 avian influenza virus, strain QH1.1).
Assay [2] has as its target hemagglutinin (HA) of H5N1 virus strain VTM1.1 (H5N1 avian influenza virus, strain VTM1.1).
For assay [3], the target named is hemagglutinin (HA) of H5N1 virus strain GD4.1 (H5N1 avian influenza virus, strain GD4.1).
The target in assay [4] is hemagglutinin (HA) of H5N1 virus strain IDN6.1 (H5N1 avian influenza virus, strain IDN6.1).
The target in assay [5] is hemagglutinin (HA) of H5N1 virus strain HN3.1 (H5N1 avian influenza virus, strain HN3.1).
The target of assay [6] is hemagglutinin (HA) of H5N1 virus strain IDN3.1 (H5N1 avian influenza virus, strain IDN3.1).
For assay [7], the target named is hemagglutinin (HA) of H5N1 virus strain GD3.1 (H5N1 avian influenza virus, strain GD3.1).
For assay [8], the target named is hemagglutinin (HA) of H5N1 virus strain YN2.1 (H5N1 avian influenza virus, strain YN2.1).
The target in assay [9] is hemagglutinin (HA) of H5N1 virus strain VTM4.1 (H5N1 avian influenza virus, strain VTM4.1).
In assay [10] the target is 14 strains of non-H5 viruses (H1~H13, Chicken NDV).
Assay [11] deals with hemagglutinin (HA) of H5N1 virus strain VNM2-2.1 (H5N1 avian influenza virus, strain VNM2-2.1).
Assay [12] has as its target hemagglutinin (HA) of H5N1 virus strain IDN1.1 (H5N1 avian influenza virus, strain IDN1.1).
Assay [13] has as its target hemagglutinin (HA) of H5N1 virus strain GD1.1 (H5N1 avian influenza virus, strain GD1.1).
The target of assay [14] is hemagglutinin (HA) of H5N1 virus strain Mixed1.1 (H5N1 avian influenza virus, strain Mixed1.1).
Assay [15] concerns the target hemagglutinin (HA) of H5N1 virus strain IDN8.1 (H5N1 avian influenza virus, strain IDN8.1).
Assay [16] has as its target H5 virus strain (fifteen strains of H5N1 viruses).
Assay [17] addresses hemagglutinin (HA) of H5N1 virus strain FJ1.5 (H5N1 avian influenza virus, strain FJ1.5).
The target in assay [18] is hemagglutinin (HA) of H5N1 virus strain C3 (H5N1 avian influenza virus, strain C3).
Assay [19] addresses hemagglutinin (HA) of H5N1 virus strain F4 (H5N1 avian influenza virus, strain F4).
In assay [20] the target is hemagglutinin (HA) of H5N1 virus strain D2 (H5N1 avian influenza virus, strain D2).
Assay [21] deals with hemagglutinin (HA) of H5N1 virus strain B6 (H5N1 avian influenza virus, strain B6).
For assay [22], the target named is hemagglutinin (HA) of H5N1 virus strain A7 (H5N1 avian influenza virus, strain A7).
Assay [23] deals with hemagglutinin (HA) of H5N1 virus strain D3 (H5N1 avian influenza virus, strain D3).
The target in assay [24] is hemagglutinin (HA) of H5N1 virus strain A8 (H5N1 avian influenza virus, strain A8).
The target of assay [25] is hemagglutinin (HA) of H5N1 virus strain B4 (H5N1 avian influenza virus, strain B4).
For assay [26], the target named is hemagglutinin (HA) of H5N1 virus strain A1 (H5N1 avian influenza virus, strain A1).
Assay [27] concerns the target hemagglutinin (HA) of H5N1 virus strain B1 (H5N1 avian influenza virus, strain B1).
The target in assay [28] is hemagglutinin (HA) of H5N1 virus strain F2 (H5N1 avian influenza virus, strain F2).
Assay [29] concerns the target hemagglutinin (HA) of H5N1 virus strain E2 (H5N1 avian influenza virus, strain E2).
The target in assay [30] is hemagglutinin (HA) of H5N1 virus strain A6 (H5N1 avian influenza virus, strain A6).
Assay [31] deals with hemagglutinin (HA) of H5N1 virus strain A2 (H5N1 avian influenza virus, strain A2).
The target of assay [32] is hemagglutinin (HA) of H5N1 virus strain B7 (H5N1 avian influenza virus, strain B7).
Assay [33] has as its target hemagglutinin (HA) of H5N1 virus strain D1 (H5N1 avian influenza virus, strain D1).
Assay [34] has as its target hemagglutinin (HA) of H5N1 virus strain F3 (H5N1 avian influenza virus, strain F3).
The target in assay [35] is hemagglutinin (HA) of H5N1 virus strain C2 (H5N1 avian influenza virus, strain C2).
Assay [36] has as its target hemagglutinin (HA) of H5N1 virus strain B3 (H5N1 avian influenza virus, strain B3).
The target of assay [37] is hemagglutinin (HA) of H5N1 virus strain A3 (H5N1 avian influenza virus, strain A3).
In assay [38] the target is hemagglutinin (HA) of H5N1 virus strain B8 (H5N1 avian influenza virus, strain B8).
Assay [39] addresses hemagglutinin (HA) of H5N1 virus strain E1 (H5N1 avian influenza virus, strain E1).
The target in assay [40] is hemagglutinin (HA) of H5N1 virus strain H2 (H5N1 avian influenza virus, strain H2).
Assay [41] deals with hemagglutinin (HA) of H5N1 virus strain G1 (H5N1 avian influenza virus, strain G1).
Assay [42] concerns the target hemagglutinin (HA) of virus strain Ck/HK/Yu22/02 (H5N1) (H5N1 avian influenza virus, strain Ck/HK/Yu22/02).

Residue numbers refer to the chain shown, from its start.

B1: monoclonal antibody 20A11 (antibody, V domains shown)
VH: QVQLQQSGAELMKPGASVKISCKATGYTFSGHWIEWVKQRPGHGLEWIGEILPGSGNIHYNEKFKGKATFAADTSSNTAYMQLSSLTSEDSAVYYCARLGTTAVERDWYFDVWGQGTSVTVSS
VL: DIVMTQSQKFMSASVGDRVSVTCKASQNVGTHLAWYQQKPGQSPKALIYSASYRYSGVPDRFTGSGSGTDFTLTISNVQSGDLADYFCQQYNNFPLTFGAGTKLEIKR
Turning to B1, the Hamaglutinin inhibition titer in assay [1], in assay [2], in [3], in assay [4], in assay [5] and in [6] was 12800 titer throughout. The Hamaglutinin inhibition titer in assay [7], in [8], in assay [9], in [11], in assay [12] and in assay [13] was 12800 titer in each case. The Hamaglutinin inhibition titer in [14], in [15] and in assay [17] was 12800 titer each time. The Neutralization titer in [1] was determined as 12800 titer; in [2], 12800 titer; in [3], 12800 titer; in [4], 12800 titer; in [5], 6400 titer; in assay [6] it was 12800 titer. Also, the Neutralization titer in assay [7], in assay [8], in assay [9], in assay [11], in assay [12] and in [13] was 12800 titer in each case. Besides, the Neutralization titer in [14], in assay [15] and in [17] was 12800 titer each time. Further, in assay [10], the Positive number/total virus number, hemagglutination inhibition assay (of 14 virus strains positive) was 0. Further, the Positive number/total virus number, hemagglutination inhibition assay (of 15 virus strains positive) in [16] was found to be 15.

B2: 13D4 chimeric antibody SV (antibody, V domains shown)
VH: B1 VH
VL: B1 VL
Turning to B2, the HI titer (hemagglutinin inhibition assay) (n (HI titer = 2^n)) was 4 in [18]; 1 in assay [19]; 5 in assay [20]; under 8 in assay [21]; 3.5 in assay [22]; 5.5 in [23]. In addition, the HI titer (hemagglutinin inhibition assay) (n (HI titer = 2^n)) is 6 in [24]; 4 in assay [25]; over 8 in assay [26]; over 8 in assay [27]; 5 in [28]; 3 in assay [29]. Also, the HI titer (hemagglutinin inhibition assay) (n (HI titer = 2^n)) was found to be 5.5 in assay [30]; 7 in assay [31]; 6.5 in assay [32]; 5 in [33]; 6.5 in assay [34]; 4 in assay [35]. Further, the HI titer (hemagglutinin inhibition assay) (n (HI titer = 2^n)) in assay [36] turned out to be 2; in [37], 5; in [38], 6; in assay [39] it was 6; in assay [40], 4; in assay [41] it was 3.

B3: 13D4 chimeric antibody LV (antibody, V domains shown)
VH: B1 VH with S118L
VL: B1 VL
On to B3, for which the HI titer (hemagglutinin inhibition assay) (n (HI titer = 2^n)) in assay [18] was 4; in assay [20] it was 4; in [21], over 8; in [22] it was 4; in [23] it was 4; in assay [24] it was 7. In addition, the HI titer (hemagglutinin inhibition assay) (n (HI titer = 2^n)) in [25] is 4; in assay [26] it was over 8; in assay [27], over 8; in [28], 5.5; in assay [29], 3; in assay [30] it was 6.5. For the same molecule, the HI titer (hemagglutinin inhibition assay) (n (HI titer = 2^n)) in assay [31] is 7; in assay [32], 6; in [33], 4; in assay [34] it was 6; in assay [35], 3; in assay [36], 2. Besides, the HI titer (hemagglutinin inhibition assay) (n (HI titer = 2^n)) in assay [37] amounted to 6; in assay [38] it was 4; in assay [39], 5.5; in assay [40], 3; in assay [41], 2.

B4: 13D4 single chain antibody (scFv)
scFv: QVQLQQSGAELMKPGASVKISCKATGYTFSGHWIEWVKQRPGHGLEWIGEILPGSGNIHYNEKFKGKATFAADTSSNTAYMQLSSLTSEDSAVYYCARLGTTAVERDWYFDVWGQGTTVTESLEDPRVPSSNSGGGGSGGGGSGGGGSDIVMTQSQKFMSASVGDRVSVTCKASQNVGTHLAWYQQKPGQSPKALIYSASYRYSGVPDRFTGSGSGTDFTLTISNVQSGDLADYFCQQYNNFPLTFGAGTKLEIKR
Take B4: the hemagglutination inhibition (HI) activity (fold dilution (from 0.18 mg/ml)) in [42] came to 8.

B5: 8G9 chimeric antibody (antibody, V domains shown)
VH: QVQLQQPGVELVRPGASVKLSCKASGYTFTSFWMNWVKQRPDQGLEWIGRIDPYDSETHYNQKFKDKAILTVDKSSSTAYMQLSSLTSEDSAVYYCGRGIATLMVLPDYWGQGTSVTVSS
VL: DILMTQSPSSMSVSLGDTVSITCHASQDISSNMGWLQQKPGKSLKGLIYHGTNLEDGVPSRFSGSGSGPDYSLTISSLESEDFADYYCVQYIQFPWTFGGGTKLEIKR
B5 gave a hemagglutination inhibition (HI) activity (fold dilution) in [42] of 16.
